This sample holds only a part of the variants without activity.
Columns and labels:
biotinyl-Leu-oxazolone = test: self-aminoacylation, catalytic enhancement (BLO) (fold over background); higher = more active; k-Seq, kA / k0A0; sequences stand for … in GGGAAUGGAUCCACAUCUACGAAUUC…UUCACUGCAGACUUGACGAAGCUG
In short: (§1)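 Working in 50 μL HEPES/NaCl/KCl/MgCl2/CaCl2 buffer with 5% acetonitrile at pH 6.9–7.0, mutagenized RNA pools (0.43 μM; 21-nt variable region) were reacted with 2–1250 μM of each biotinyl-aminoacyl-oxazolone for 90 minutes at room temperature. Streptavidin capture followed, with quantification by triplicate qPCR and Illumina sequencing. Catalytic enhancement is reported as median kA over the uncatalyzed rate, the low-activity peak of a bimodal Gaussian fit to the data.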

biotinyl-Ile-oxazolone = test: self-aminoacylation, catalytic enhancement (BIO) (fold over background); higher = more active; k-Seq, kA / k0A0; sequences stand for … in GGGAAUGGAUCCACAUCUACGAAUUC…UUCACUGCAGACUUGACGAAGCUG
In short: as §1

biotinyl-Val-oxazolone = test: self-aminoacylation, catalytic enhancement (BVO) (fold over background); higher = more active; k-Seq, kA / k0A0; sequences stand for … in GGGAAUGGAUCCACAUCUACGAAUUC…UUCACUGCAGACUUGACGAAGCUG
In short: as §1

biotinyl-Trp-oxazolone = test: self-aminoacylation, catalytic enhancement (BWO) (fold over background); higher = more active; k-Seq, kA / k0A0; sequences stand for … in GGGAAUGGAUCCACAUCUACGAAUUC…UUCACUGCAGACUUGACGAAGCUG
In short: as §1

biotinyl-Phe-oxazolone = test: self-aminoacylation, catalytic enhancement (BFO) (fold over background); higher = more active; k-Seq, kA / k0A0; sequences stand for … in GGGAAUGGAUCCACAUCUACGAAUUC…UUCACUGCAGACUUGACGAAGCUG
In short: as §1

biotinyl-Met-oxazolone = test: self-aminoacylation, catalytic enhancement (BMO) (fold over background); higher = more active; k-Seq, kA / k0A0; sequences stand for … in GGGAAUGGAUCCACAUCUACGAAUUC…UUCACUGCAGACUUGACGAAGCUG
In short: as §1

Sequence	self-aminoacylation (biotinyl-Leu-oxazolone)	self-aminoacylation (biotinyl-Ile-oxazolone)	self-aminoacylation (biotinyl-Val-oxazolone)	self-aminoacylation (biotinyl-Trp-oxazolone)	self-aminoacylation (biotinyl-Phe-oxazolone)	self-aminoacylation (biotinyl-Met-oxazolone)
CCACACUUCAAGCACGCGGUC [Fam1B.1 aminoacylation ribozyme variant]	1.54	1.76	2.1	1.91	0.928	2.3
AUUACCCUGGUCAUCGGGCGA [Fam2.1 aminoacylation ribozyme variant]	10	4.15	4.62	8.14	20.1	8.99
GCACACUUCAAGCAAUCGCUC [Fam1B.1 aminoacylation ribozyme variant]	2.82	3.18	2.92	4.76	12.2	2.84
AAGUUUGCUAACAGUCGCUAG [Fam3.1 aminoacylation ribozyme variant]	0.823	0.756	0.899	0.96	1.36	0.738
CUACUUCCAACAAUCGGUAUG [Fam1A.1 aminoacylation ribozyme variant]	0.663	0.654	0.782	0.533	0.634	0.611
AACUUGGCUAAUAGUCGCAAG [Fam3.1 aminoacylation ribozyme variant]	2.62	2.42	1.71	2.31	2.88	2
AUACACCUAGGUCUUCGGGUG [Fam2.2 aminoacylation ribozyme variant]	3.72	2.7	3.04	2.64	23.2	2.71
CCGCACUUCAAGCUAUCGGUC [Fam1B.1 aminoacylation ribozyme variant]	0.84	1.15	1.42	1.19	0.936	0.919
AUACUUCAAACAAUCGGUUUG [Fam1A.1 aminoacylation ribozyme variant]	1.14	1.05	1.06	9.98	12.9	0.91
AUUCAUCUAGGUGAUCGGGUG [Fam2.2 aminoacylation ribozyme variant]	3.57	2.4	2.54	3.76	20.3	2.85
AUUCAGCUAGGUCAGCGGGUG [Fam2.2 aminoacylation ribozyme variant]	4.01	2.71	2.53	4.28	21.8	3.79
CCAGACUUCAAGCAAUGGGUC [Fam1B.1 aminoacylation ribozyme variant]	0.759	0.856	0.856	0.74	0.887	0.72
AUUCACCUAGCUCAUCGCGUG [Fam2.2 aminoacylation ribozyme variant]	6.1	2.98	3.28	5.18	34.7	4.26
UUUACCCUGGUCAUGGAGUGA [Fam2.1 aminoacylation ribozyme variant]	3.04	2.58	2.44	3.99	9.54	3.46
CAGUUUGCUAAUCGUCGCAAG [Fam3.1 aminoacylation ribozyme variant]	1.32	0.971	1.07	1.05	0.994	0.993
AAGUUUGCUAAAAGUCGCAAG [Fam3.1 aminoacylation ribozyme variant]	1.01	1.24	1.08	4.97	17.1	1.33
AUUACACUGGUGAUCGAGUGA [Fam2.1 aminoacylation ribozyme variant]	4.21	2.33	2.42	5.92	20.9	4.88
CUACUUCAUACGAUCGGUCUG [Fam1A.1 aminoacylation ribozyme variant]	0.526	0.61	0.852	0.824	0.597	0.624
CUACUUCAAACAUUCGGUCCG [Fam1A.1 aminoacylation ribozyme variant]	0.959	0.823	0.884	1.52	0.323	0.978
AUUCACCUAGGCCAUCUGGUG [Fam2.2 aminoacylation ribozyme variant]	3.29	1.54	2.05	2.35	13.2	2.74
AAGUUUGUUAAUGGUCGCAAG [Fam3.1 aminoacylation ribozyme variant]	0.694	0.867	0.685	0.557	1.11	0.775
GUUACCGUGGUCAUCGAGUGA [Fam2.1 aminoacylation ribozyme variant]	10.6	5.33	5.58	10.1	55.3	9.15
CCACACUUCAAGGAAUCAGUC [Fam1B.1 aminoacylation ribozyme variant]	0.62	0.668	0.757	1.08	2.49	0.614
CCACACUUCAAGGAUUCGGUC [Fam1B.1 aminoacylation ribozyme variant]	2.02	1.85	2.02	1.96	0.958	1.83
CUUCUCCAAACAAUCGGUCUG [Fam1A.1 aminoacylation ribozyme variant]	0.723	0.67	0.831	0.962	1.26	0.772
AUGAUCCUGGUCAUCGAGUGA [Fam2.1 aminoacylation ribozyme variant]	9.67	4.83	4.44	9.32	14	9.84

Sequence	self-aminoacylation (biotinyl-Leu-oxazolone)	self-aminoacylation (biotinyl-Ile-oxazolone)	self-aminoacylation (biotinyl-Val-oxazolone)	self-aminoacylation (biotinyl-Trp-oxazolone)	self-aminoacylation (biotinyl-Phe-oxazolone)	self-aminoacylation (biotinyl-Met-oxazolone)
GUUCUCCUAGGUCAUCGGGUG [Fam2.2 aminoacylation ribozyme variant]	13.7	6.21	6.51	9.42	55.1	9.55
AAGUUUGCUAAUAGUCGCGAU [Fam3.1 aminoacylation ribozyme variant]	1.47	1.46	1.37	1.86	1.53	1.33
AUUACCUUGGUCAUCUAGUGA [Fam2.1 aminoacylation ribozyme variant]	8.77	4.49	4.72	11.2	47.8	9.34
CCCCACUUCAAGCAAACGGUC [Fam1B.1 aminoacylation ribozyme variant]	1.03	1.33	1.41	1.67	2.34	1.36
AUUCACCUUGGUCAUCGGCUG [Fam2.2 aminoacylation ribozyme variant]	1.7	1.64	2.19	1.66	7.58	1.52
AUCACCCUGGACAUCGAGUGA [Fam2.1 aminoacylation ribozyme variant]	10.4	3.98	4.56	8.8	68.7	9.05
AAGUUUGCUAAGAGUCGCACG [Fam3.1 aminoacylation ribozyme variant]	0.977	1.17	1.12	2.06	5.94	0.636
AAGUUUACUAAUCGUCGCAAG [Fam3.1 aminoacylation ribozyme variant]	1.55	1.64	1.46	1.35	2.66	1.13
AUUCACCUAGGUCACCGGGUA [Fam2.2 aminoacylation ribozyme variant]	3.2	2.6	2.46	3.11	14	2.79
CCACACUUCAAGCAAUCUCUC [Fam1B.1 aminoacylation ribozyme variant]	0.385	0.61	0.669	0.383	0.826	0.514
CUACUUCAAGCAAUCGGACUG [Fam1A.1 aminoacylation ribozyme variant]	1.04	0.86	0.861	2.58	4.71	0.714
AAGUUUGCUAAUAUGCGCAAG [Fam3.1 aminoacylation ribozyme variant]	0.843	0.847	0.61	1.2	1.34	0.89
AAGUUUACUAAUAGUCGCAGG [Fam3.1 aminoacylation ribozyme variant]	1.6	1.55	1.34	1.61	2.36	1.25
GCACACUUGAAGCAAUCGGUC [Fam1B.1 aminoacylation ribozyme variant]	1.29	1.45	1.4	1.99	1.46	1.11
CUUCACCUAGGUCGUCGGGUG [Fam2.2 aminoacylation ribozyme variant]	2.43	2.2	2.54	2.19	9.55	2.39
GCACACUUCAAGCUAUCGGUC [Fam1B.1 aminoacylation ribozyme variant]	1.35	1.48	1.48	1.81	1.47	1.36
CCAUACUUCAAGCAAUCAGUC [Fam1B.1 aminoacylation ribozyme variant]	0.804	0.884	0.81	2.64	7.22	0.659
AUUACCCUGGACCUCGAGUGA [Fam2.1 aminoacylation ribozyme variant]	3.9	1.88	2.4	3.16	5.71	3.68
AUACACCUAGGUCAUCGGGUC [Fam2.2 aminoacylation ribozyme variant]	1.57	1.08	1.29	1.18	7.44	1.31
AUUACCCUGGUCCUUGAGUGA [Fam2.1 aminoacylation ribozyme variant]	8.35	3.86	3.86	9.98	56.2	8.05
GCACACUUCAAGCAAUCUGUC [Fam1B.1 aminoacylation ribozyme variant]	0.708	0.87	0.867	0.902	1.22	0.605
AUUCACCUAGGUCCUCCGGUG [Fam2.2 aminoacylation ribozyme variant]	11.5	6.38	5.33	9.26	63.3	10.3
AUUAUCCUGGUCACCGAGUGA [Fam2.1 aminoacylation ribozyme variant]	8.43	3.11	3.84	8.39	54	7.82
AUUCAUCUAGUUCAUCGGGUG [Fam2.2 aminoacylation ribozyme variant]	3.27	2.13	2.21	3.1	12.6	2.83
UUGACCCUGGUCAUCGAGUGA [Fam2.1 aminoacylation ribozyme variant]	19.1	7.37	7.21	18.7	129	19.9
